This note sets out measurements from the DeepSol protein solubility set.

A short description of the series: soluble on expression in E. coli; label from the status in PepcDB or PDB records.
Regarding “MGGSHHHHHHGMASLGMIKNSLFGSVETWPWQVLSKGDKEEVAYEERACEGGKFATVEVTDKPVDEALREAMPKVAKYAGGTNDKGIGMGMTVPISFAVFPNEDGSLQKKLKVWFRIPNQFQSDPPAPSDKSVKIEEREGITVYSMQFGGYAKEADYVAQATRLRAALEGTATYRGDIYFCTGYDPPMKPYGRRNEIWLLKT”, the “soluble on expression in E. coli” value was “not soluble”.
Then “MAISDSYLKSCLGRERDKVEEKADRDGLWVRISKKGAVTFFYRFRFLGKQDKMTIGSYPEFGLKAAREEVTKWAAILARGENPRIRQSLDKAKINSQYTFEELFREWHAMVCVQKETSDQILRSFELHVFPKLGKYPAHQLTLHNWLTVLDRLAQGYTEITRRVISNGRQCYSWAVKRQLLEVNPLSEMSGRDFGIQKKMGERTLDRKEIAIVWRAIEDSRLIERNKILYKLSLIWACRVGELRQAEVSHFDFEEGVWTVPWENHKTGRKSKKPIIRPIIPEMLPLIQRAIELAPGRFVFSKYADKPMSEGFHMSISSNLVKFMLKAYNEQVPHFTIHDLRRTARTNFSELTEPHIAEMMLGHKLPGVWSVYDKYTYIEEMREAYSKWWARLMSIIEPDVLEFTPRQTG”, with “not soluble”; and “MNKDVSLGQPIVRYEDGKLFNTTDQYVTEFPLTIMVNGEEFATVICSPTNLEELVIGFLASEGAILKRDELKSVLIDDSKGFAHVELNKDLGDRFQYSTKRMIASCCGKSREFYFQNDAAIAKTSMSKITLTPIQIINMMTRLQSASHIYQETGGLHNAAISDGLTFFVHRQDIGRHNALDKLYGFCIQRHITVRDKVLIFSGRISSEILIKAAKIGVGVILSKSAPTTLAVTLANDLNITAVGFIRNGGFNIYSHPERIIDSEQ”, with “not soluble”; and “MKILYIILFIQIGWIFPLSAQKQDSIYIGTRHTLFSEILNEERKYWIYVPETKAGEKGKAYPVLYLLDGDSFFHSVVGFTRFFSSSKTSNLPPCIVVAVLNTDRTRDFTPTCSAARRDGTICPYDKPAGGGAEQFHRFLIEELRLEVENKVPANGTNFLVGHSYAGLFTLQTLSNHPESFDSYIAIDPSLWWDRGVFLQQAAKNVYQKDFSGKHLYVAFATRQRPAIKLIQFSLADSLKNKIIPEMKNKHLHVVYKKFPDEVHGTIALPAIFDGLKSLFHNTISTKEAT”, with “not soluble”.
Then “MGSDKIHHHHHHMSKIGLTTTVPVEVIYAAGDTPVDLNNIFISDTREAMLRIEEAELAGYPRNVCGWIKGLYATALKSPEIKKIVAVTQGDCSNTHALMETWSEEGIEIIPFAFPYDRDGDMLRLQLEKLITALGTTWDQVREQKVRLDQVRQLAWEIDRLTWQENQVRGFENHLHLVSCSDFNGDPEGFARDLEGFIAEAREREPLNLQFKGRKKRELRLGFMGVPPIMPDLYNFLEEHGARVVFNEVQRQFSMPFATEDIVEQYQLYTYPYNVFGRIEDVAQEAERRQLDGLIHYTQSFCYRQIEDLIVRRRLDYPILNLEGENPTGLDARSKMRLESFLQMLRD”, with “not soluble”; and “GAASEAEYGKVSKAWTLHADGSQEYRSSMELTLFTHTAMNSTYGESFIVYNPDFQTLKIHSSYTRQKDGTIVKTPDNAFVEVLPRFAADAPAYNQLKEMVVVHTGLELGATIYLDYSIITKPGYYPALDINERLQETSPVKECKVSISVPEGTPLACGLYGSPVKAVEESHDGIKEVHWTLRNIPASSREAFQPKNREASPHLVASTYPSGKAALATLDKRLKESQGYESKTFAQFLTDKSGNEQEKVNIIRDHILNNLSTCPIPMAMTGYTVRDIDTVLRSAYGTPLEIAQLLNVMLNAAGIPSEVLAVYPGHLDTDACGLAAIQTLAVKATVDGKDQYLSASPLTNRGGLDKVVSLSGTSIEIETTPIQIKESRSVAISADQAKDGFAICVLPAISAGIDSWGMSALNSKRSNLFELPSLIREEVTYTVTPAEGMKLQTSTQEQVISKPFGKVTRTITPRGNTIEVVRTIELNKQQFTPAEYSDVRSLIHEWTNPDNRVLLFSL”, with “soluble”; and “MIKHLFIDLDDTLWDTYHNNKSSLEELYHTHAWDRYFDSFETFFSIYLPHNEALWSEYRYGQIDKPTLTLERFRRPFTGYLTLSDEQILAWNAEFLSITGRKTRLCPHALEVMEYLHRYYKVYILSNGFREIQHAKLTNSGLAPYIDRVILSEDAGINKPNKKIFDFALVKAKARKTESIMIGDSWEADIVGAANAGLASVWYNPNRHILPDDGVRAPMHIISSLSELMQIF”, with “not soluble”.
The same measure for “MQKSYGVALESPTGSGKTIMALKSALQYSSERKLKVLYLVRTNSQEEQVIKELRSLSSTMKIRAIPMQGRVNMCILYRMVDDLHEINAESLAKFCNMKKREVMAGNEAACPYFNFKIRSDETKRFLFDELPTAEEFYDYGERNNVCPYESMKAALPDADIVIAPYAYFLNRSVAEKFLSHWGVSRNQIVIILDEAHNLPDIGRSIGSFRISVESLNRADREAQAYGDPELSQKIHVSDLIEMIRSALQSMVSERCGKGDVRIRFQEFMEYMRIMNKRSEREIRSLLNYLYLFGEYVENEKEKVGKVPFSYCSSVASRIIAFSDQDEEKYAAILSPEDGGYMQAACLDPSGILEVLKESKTIHMSGTLDPFDFYSDITGFEIPFKKIGEIFPPENRYIAYYDGVSSKYDTLDEKELDRMATVIEDIILKVKKNTIVYFPSYSLMDRVENRVSFEHMKEYRGIDQKELYSMLKKFRRDHGTIFAVSGGRLSEGINFPGNELEMIILAGLPFPRPDAINRSLFDYYERKYGKGWEYSVVYPTAIKIRQEIGRLIRSAEDTGACVILDKRAGQFRKFIPDMKKTSDPASDIYNFFISAQAREKYGA”: “soluble”; for “GPMATESPNSVQKIVVHLRATGGAPILKQSKFKVSGSDKFANVIDFLRRQLHSDSLFVYVNSAFSPNPDESVIDLYNNFGFDGKLVVNYACSMAWG”: “soluble”; for “NGNPIPMGYSQAVENNVQITNFALFSAAAIGVELCLFDEQNQETRLPMVRTENVWHLAVTGVKTGTEYAFRIHGEFANPQKLILDPYAKAVNGKPDLSSEESRSWFLLSDNRDNAHLAPRAVVIS”: “not soluble”.
Turning to “TGTAIYFIHGTADQPAAFKRVAERLIDTGLPDEICSLNLLAFDQRYQGKSIKFFAEQLKNKIKVNQHQRVILMAHSRGGLVASYFAEFLAKEASIDVPLVITMGTPFNGSYLAVKPLSWFSDSIREMEINSEFLAQLKQEIVEHSVSAYHFFIAKEDAIVPGESGYIKDYVDKYPESLHILDRHGHLSIMSSHRLVSHISSLLHDYIDDY”, the “soluble on expression in E. coli” value is recorded as “not soluble”.
Then “MGSDKIHHHHHHMANPQSPHATLQLPQGMEITAEIKPGYDAILTREALELVAALHRTFEPRRQQLLQARAERTKRLDAGERPDFLAETKSVREGDWKIAPLPQDLQCRRVEITGPVERKMIINALNSGADSYMTDFEDSNAPSWDNQITGHINLKDAVRRTISLEQNGKSYALNDKVATLIVRPRGWHLDEKHVKVDGKRVSGSIFDFALFMVHNAKELLARGSGPYFYLPKMESHLEARLWNDIFVAAQEAVGVPRGTIRATVLIETILAAFEMDEILYELREHSSGLNAGRWDYIFSAIKKFKSDRDFCLADRSQITMTSPFMRAYALLLLKTCHRRNAPAIGGMSALIPIRNDPAANDKAMAGVRSDKARDAGDGYDGGWVAHPGLVAIAMEEFVKVLGDKPNQIGKQRDDVLVTATDLLDFRPETPITENGLRNNINVGIHYLGAWLTGNGCVPIHNLMEDAATAEISRSQVWQWIRSPKGKLDDGRKVTAELVRAMSAQELDKVKQAVGGDTKPYERAAQIFEEMSTSEQFTDFLTLPLYEEI”, with “not soluble”; and “MGVFAQNLKFGHINAQEIVSAMPEFAKAQSDIEALDKQLTSELQRTQEEFNKKYQEFQQAIAKDSLPANIAERRQKELQDMMQRQEQFQQEAQQQMQKAQADAMAPIYKKLDDAIKAVGAAEGVIYIFDLARTPVAYVNESQSINLTPKVKTQLGIK”, with “not soluble”; and “MTAASIDRELVPWSDPEFRNNPYPWYRRLQQDHPVHKLEDGTYLVSRYADVSHFAKLPIMSVEPGWADAGPWAVASDTALGSDPPHHTVLRRQTNKWFTPKLVDGWVRTTRELVGDLLDGVEAGQVIEARRDLAVVPTHVTMARVLQLPEDDADAVMEAMFEAMLMQSAEPADGDVDRAAVAFGYLSARVAEMLEDKRVNPGDGLADSLLDAARAGEITESEAIATILVFYAVGHMAIGYLIASGIELFARRPEVFTAFRNDESARAAIINEMVRMDPPQLSFLRFPTEDVEIGGVLIEAGSPIRFMIGAANRDPEVFDDPDVFDHTRPPAASRNLSFGLGPHSCAGQIISRAEATTVFAVLAERYERIELAEEPTVAHNDFARRYRKLPIVLS”, with “soluble”.
Then “MSLSLEEALLFREATVTDLKSIMNVENAAFTVPWTEAAFRNEFIINQYAYYLLAIYKEQVVGYAGVWLVLDEGHITNIAIHPDYQGNHYGEALLREMIRVAKERGVVRMTLEVRVSNDVAQGLYKKLGFQDGAIRKNYYPDTKEDALVMWVDLEGHHHHHH”, with “soluble”; and “MTIEDTVIKLIGSLKDPLLDLTGKEMNLQYKITTSNQAMHVVLTAGYPTSLLETSYKPIVQKIVQDEFPNYQVTISIQQFIKAHKTQLTGKALRGVKNTIAVASGKGGVGKSTVTVNLAAALAKLGARVGILDADIYGPSIPLMLGETKPVQVKDNCYIPVEAHGMQAMSIGYLTDTNQALIWRGPMLAKSLIQMLDITLWNELDYLFIDLPPGTGDIQLTLVQKIPLTSAIVVTTPQNVATLDAQKAITMFSRTGIDVLGIIENMSTHICSHCGHQEAIFGRGGAAALCDAYQCTLLGQLPLDSHVRRHCDEGVPTATHSSNQLTDTFIKTAMRTAIELSKKPINYADRFPKIVVEAAALEHHHHHH”, with “soluble”; and “MEEIMLFPLSSVVLPEGKMKLRIFEPRYQRMVAQCSKTGSGFGLCLFDSKSNKNANELSEFGTLVKIVDFETLSDGLLGITVVGIRRFAIRKVRVEYDGLRIATVQWFPDWPSQELLERERFLGEQLQEVYRQFPQIGELHSLCFFDDASWVCQRWLELLPLSKGQFDVLVGQRDCHAALAFLQRTIESHLDT”, with “not soluble”.
Turning to “MDDSREESQFIVDDVSKTIKEAIETTIGGNAYQHDKVNNWTGQVVENCLTVLTKEQKPYKYIVTAMIMQKNGAGLHTASSCYWNNDTDGSCTVRWENKTMYCIVSVFGLAV”, the “soluble on expression in E. coli” value is reported as “soluble”.
Then “GPGSMGTRQSSASAAPAPQASNGALHLNKLNVPTPPRIAATESPFGSNTPLAKTPTPTAATATATAAVSGEHAKRFQEALRVDSVDMALLRELSWQGCPVALRYEAWMFLTGCWTAQAATRQATVLRRRVEYAAYIHSSYGIVDWDAVCAMVDSGVDTAVHRSTLKLLEHTADAPQVAPPSGTSHSLLRVAPLTTGDSTAMAAKEAAAALPPSLSQRPDGRQSASLPLEDVRSRLPQNTSGSDAPQPSQLSPPQSADIRSASPSLGIVPAPSDSSFRASASAGFTDTAGTGPASHPSIFAPPLPGFATLGLSNVVAATAAPPAASGGAGGATGHQLSASTMLGSKELQTLKQIRKDIPRMSGGHCYLRHPRVQGSIERILFIWSLRHPACGYVQGMNDLVVPFMGVVLGYRFCPTHSVTELHAYTEDIFDDLWSVSAVSVTQWINEVEADVYWMTSYLLNTMQDNYTSSHAGITSMMRHLAAVVQVADPPLYHRLVNVLQLHFEQFSFRWMNCLLIRELTETQSLRLLDAYLSDEERRWSVTHVYVCAALLLRWGSQLMAFCEDYISVMKLLQEPPTEQLSLRDMQDVLSEGFVLQNLYEASLKRLSTTAE”, with “not soluble”; and “MRRAGYLHLYGLNLVFDRVGKGPPVLLVAEEASRWPEALPEGYAFYLLDLPGYGRTEGPRMAPEELAHFVAGFAVMMNLGAPWVLLRGLGLALGPHLEALGLRALPAEGVEVAEVLSSKLSYGNIDLGGNL”, with “soluble”.
